Reference: patent publication US20240376185A1 (SMIVET B V, published 2024)

B1: SVT02L (VHH)
VHH: QVQLQQSGGGSVQAGGSLRLSCVGPQRTFSTYGMGWFRQAPGKEREFVAGINYKGDTTYYADSVKGRFTISRDNAKNTLYLQMDSLKPEDRAVYQCARKGGLGGDYRDAGQYRYWGQGTQVTVSS
B2: SVT03L (VHH)
VHH: QVQLQQSGGGSVQTGDSLTLSCTASGGSLNSYFVGWFRQSGGKEREFVSVIARTGRSTSYADSVKGRFTISRDNAANTVFLTMNNLRPDDTAIYYCAAVGRPGVLHLTQSYDYWGQGTQVTVSS
B3: SVA06L (VHH)
VHH: QVQLQESGGRLVQAEDSLRLSCAASGRTFVSYDMGWFRQAPGKEREFVAAINWRGYTTDYVDSVKGRFFISRDIAKSTVYLQMNNLKPEDTAVYYCAARQMSGSSRYSPPGRVGYDFWGQGTQVTVSS

Key:
[1] = molecular target: T1, tetanus neurotoxin (TeNT), authentic tetanus holotoxin (Clostridium tetani, UniProt P04958 2-1315); test: ELISA, directly coated TeNT
Target sequence in this assay (P04958 2-457 limits assumed, chain 1 of 2): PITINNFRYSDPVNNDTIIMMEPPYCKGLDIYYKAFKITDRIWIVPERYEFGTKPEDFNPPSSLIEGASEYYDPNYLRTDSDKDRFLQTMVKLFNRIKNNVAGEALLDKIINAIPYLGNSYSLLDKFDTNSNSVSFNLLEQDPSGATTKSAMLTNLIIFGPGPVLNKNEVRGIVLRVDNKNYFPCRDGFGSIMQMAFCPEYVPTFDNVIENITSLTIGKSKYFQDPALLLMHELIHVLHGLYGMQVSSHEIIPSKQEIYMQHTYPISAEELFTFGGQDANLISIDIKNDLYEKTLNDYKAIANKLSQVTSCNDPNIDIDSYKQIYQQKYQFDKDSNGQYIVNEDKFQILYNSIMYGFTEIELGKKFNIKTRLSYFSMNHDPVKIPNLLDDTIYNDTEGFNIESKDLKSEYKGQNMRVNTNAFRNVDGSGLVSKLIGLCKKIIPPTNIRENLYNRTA
Target sequence in this assay (P04958 458-1315 limits assumed, chain 2 of 2): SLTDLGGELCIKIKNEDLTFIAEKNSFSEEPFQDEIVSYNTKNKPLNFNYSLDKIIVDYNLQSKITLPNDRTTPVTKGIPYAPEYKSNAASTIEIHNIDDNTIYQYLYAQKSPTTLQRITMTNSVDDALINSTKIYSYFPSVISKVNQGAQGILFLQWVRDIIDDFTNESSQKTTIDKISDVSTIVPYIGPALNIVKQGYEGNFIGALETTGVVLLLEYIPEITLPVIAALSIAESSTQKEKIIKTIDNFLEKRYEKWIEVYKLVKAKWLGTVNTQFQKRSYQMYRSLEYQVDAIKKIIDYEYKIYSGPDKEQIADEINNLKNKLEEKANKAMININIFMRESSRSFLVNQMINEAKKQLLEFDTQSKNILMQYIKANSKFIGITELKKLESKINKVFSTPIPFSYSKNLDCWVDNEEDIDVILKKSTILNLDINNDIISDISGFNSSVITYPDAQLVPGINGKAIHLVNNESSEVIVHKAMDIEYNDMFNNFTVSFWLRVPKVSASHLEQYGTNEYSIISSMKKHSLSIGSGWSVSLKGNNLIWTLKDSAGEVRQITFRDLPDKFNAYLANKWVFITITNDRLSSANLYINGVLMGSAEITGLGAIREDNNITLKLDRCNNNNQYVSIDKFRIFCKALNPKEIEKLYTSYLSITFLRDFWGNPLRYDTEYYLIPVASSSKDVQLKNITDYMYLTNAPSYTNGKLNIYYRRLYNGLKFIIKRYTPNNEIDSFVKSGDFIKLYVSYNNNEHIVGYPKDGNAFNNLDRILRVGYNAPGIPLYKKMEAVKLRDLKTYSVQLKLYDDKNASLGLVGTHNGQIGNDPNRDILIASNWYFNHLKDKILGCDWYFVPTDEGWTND

[2] = molecular target: T2, recombinant tetanus toxin fragment C (rTTC) (Clostridium tetani, UniProt P04958 865-1315); test: ELISA, directly coated rTTC
T2 sequence: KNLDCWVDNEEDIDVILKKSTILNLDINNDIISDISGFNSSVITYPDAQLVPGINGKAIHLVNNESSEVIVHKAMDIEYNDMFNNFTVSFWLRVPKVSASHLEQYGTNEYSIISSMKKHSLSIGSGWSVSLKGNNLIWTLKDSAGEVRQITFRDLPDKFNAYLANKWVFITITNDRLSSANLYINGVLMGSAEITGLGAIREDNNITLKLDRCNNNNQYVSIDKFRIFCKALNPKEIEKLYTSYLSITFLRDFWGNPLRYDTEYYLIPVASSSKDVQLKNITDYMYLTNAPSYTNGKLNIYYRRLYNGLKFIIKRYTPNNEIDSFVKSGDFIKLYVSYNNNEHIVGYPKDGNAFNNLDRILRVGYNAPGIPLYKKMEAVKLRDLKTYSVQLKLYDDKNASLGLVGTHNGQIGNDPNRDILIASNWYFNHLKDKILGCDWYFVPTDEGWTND

[3] = molecular target: T1, tetanus neurotoxin (TeNT), authentic …; test: ELISA, TeNT captured with coated mAb 6E7
Target sequence in this assay (P04958 2-457 limits assumed, chain 1 of 2): as the sequence (P04958 2-457 limits assumed, chain 1 of 2) above
Target sequence in this assay (P04958 458-1315 limits assumed, chain 2 of 2): as the sequence (P04958 458-1315 limits assumed, chain 2 of 2) above

[4] = molecular target: T2, recombinant tetanus toxin fragment C …; test: ELISA, rTTC captured with coated mAb 6E7
[5] = molecular target: T1, tetanus neurotoxin (TeNT), authentic …; test: GT1b-TeNT inhibition ELISA, EC at A450 0.59
Target sequence in this assay (P04958 2-457 limits assumed, chain 1 of 2): as the sequence (P04958 2-457 limits assumed, chain 1 of 2) above
Target sequence in this assay (P04958 458-1315 limits assumed, chain 2 of 2): as the sequence (P04958 458-1315 limits assumed, chain 2 of 2) above

[6] = molecular target: T1, tetanus neurotoxin (TeNT), authentic …; test: GT1b-TeNT inhibition ELISA, unlabelled binder
Target sequence in this assay (P04958 2-457 limits assumed, chain 1 of 2): as the sequence (P04958 2-457 limits assumed, chain 1 of 2) above
Target sequence in this assay (P04958 458-1315 limits assumed, chain 2 of 2): as the sequence (P04958 458-1315 limits assumed, chain 2 of 2) above

[7] = molecular target: T1, tetanus neurotoxin (TeNT), authentic …; test: ELISA, directly coated TeNT, unlabelled binder
[8] = molecular target: T2, recombinant tetanus toxin fragment C …; test: ELISA, directly coated rTTC, unlabelled binder
[9] = molecular target: T1, tetanus neurotoxin (TeNT), authentic …; test: ELISA, directly coated TeNT, biotinylated binder
[10] = molecular target: T1, tetanus neurotoxin (TeNT), authentic …; test: ELISA, TeNT captured with cAb-TT2, unlabelled binder
Target sequence in this assay (P04958 2-457 limits assumed, chain 1 of 2): as the sequence (P04958 2-457 limits assumed, chain 1 of 2) above
Target sequence in this assay (P04958 458-1315 limits assumed, chain 2 of 2): as the sequence (P04958 458-1315 limits assumed, chain 2 of 2) above

[11] = molecular target: T1, tetanus neurotoxin (TeNT), authentic …; test: ELISA, TeNT captured with cAb-TT2, biotinylated binder
Target sequence in this assay (P04958 2-457 limits assumed, chain 1 of 2): as the sequence (P04958 2-457 limits assumed, chain 1 of 2) above
Target sequence in this assay (P04958 458-1315 limits assumed, chain 2 of 2): as the sequence (P04958 458-1315 limits assumed, chain 2 of 2) above

[12] = molecular target: T1, tetanus neurotoxin (TeNT), authentic …; test: competition ELISA on TeNT, binder biotinylated; competitor SVT02L
[13] = molecular target: T1, tetanus neurotoxin (TeNT), authentic …; test: competition ELISA on TeNT, binder biotinylated; competitor SVT03L
[14] = molecular target: T1, tetanus neurotoxin (TeNT), authentic …; test: competition ELISA on TeNT, binder biotinylated; competitor SVT06L
[15] = molecular target: T1, tetanus neurotoxin (TeNT), authentic …; test: competition ELISA on TeNT, binder biotinylated; competitor SVT08L
[16] = molecular target: T1, tetanus neurotoxin (TeNT), authentic …; test: competition ELISA on TeNT, binder biotinylated; competitor SVT13L
[17] = molecular target: T1, tetanus neurotoxin (TeNT), authentic …; test: competition ELISA on TeNT, binder biotinylated; competitor SVT15L
[18] = molecular target: T1, tetanus neurotoxin (TeNT), authentic …; test: competition ELISA on TeNT, binder biotinylated; competitor SVT16L
[19] = molecular target: T1, tetanus neurotoxin (TeNT), authentic …; test: competition ELISA on TeNT, binder biotinylated; competitor SVT22L
[20] = molecular target: T1, tetanus neurotoxin (TeNT), authentic …; test: competition ELISA on TeNT, binder biotinylated; competitor SVT34L
[21] = molecular target: T1, tetanus neurotoxin (TeNT), authentic …; test: competition ELISA on TeNT, binder biotinylated; competitor mAb 6E7
[22] = molecular target: T1, tetanus neurotoxin (TeNT), authentic …; test: competition ELISA on TeNT, binder biotinylated; competitor mAb 14F5
[23] = molecular target: T1, tetanus neurotoxin (TeNT), authentic …; test: competition ELISA on TeNT, binder biotinylated; competitor mAb 6F57
[24] = molecular target: T1, tetanus neurotoxin (TeNT), authentic …; test: competition ELISA on TeNT, binder biotinylated; competitor mAb 11n185
[25] = molecular target: T1, tetanus neurotoxin (TeNT), authentic …; test: competition ELISA on TeNT, binder biotinylated; competitor SVT15L-3FW4M
mouse albumin = mouse albumin (mouse, UniProt P07724 25-608); test: ELISA on coated albumin
mouse albumin, sequence (P07724 25-608 limits assumed): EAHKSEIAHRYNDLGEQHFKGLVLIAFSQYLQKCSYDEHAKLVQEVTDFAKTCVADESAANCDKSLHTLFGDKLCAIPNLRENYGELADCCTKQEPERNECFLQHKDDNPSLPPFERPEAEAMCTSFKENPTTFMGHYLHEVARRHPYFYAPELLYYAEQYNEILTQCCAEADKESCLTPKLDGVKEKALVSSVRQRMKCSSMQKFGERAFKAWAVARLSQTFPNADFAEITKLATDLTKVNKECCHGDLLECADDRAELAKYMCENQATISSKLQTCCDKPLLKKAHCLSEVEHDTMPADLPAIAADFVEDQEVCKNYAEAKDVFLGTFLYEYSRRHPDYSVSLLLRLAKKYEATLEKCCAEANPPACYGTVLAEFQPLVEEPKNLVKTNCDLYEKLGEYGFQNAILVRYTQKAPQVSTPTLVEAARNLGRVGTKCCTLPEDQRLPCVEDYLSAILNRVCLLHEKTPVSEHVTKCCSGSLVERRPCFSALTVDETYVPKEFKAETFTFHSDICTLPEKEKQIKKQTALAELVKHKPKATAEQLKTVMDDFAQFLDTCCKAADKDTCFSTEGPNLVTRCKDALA

swine albumin = molecular target: T3, swine albumin (swine, UniProt P08835 25-607); test: ELISA on coated albumin
T3 construct: also called Porcine albumin
T3 sequence (P08835 25-607 limits assumed): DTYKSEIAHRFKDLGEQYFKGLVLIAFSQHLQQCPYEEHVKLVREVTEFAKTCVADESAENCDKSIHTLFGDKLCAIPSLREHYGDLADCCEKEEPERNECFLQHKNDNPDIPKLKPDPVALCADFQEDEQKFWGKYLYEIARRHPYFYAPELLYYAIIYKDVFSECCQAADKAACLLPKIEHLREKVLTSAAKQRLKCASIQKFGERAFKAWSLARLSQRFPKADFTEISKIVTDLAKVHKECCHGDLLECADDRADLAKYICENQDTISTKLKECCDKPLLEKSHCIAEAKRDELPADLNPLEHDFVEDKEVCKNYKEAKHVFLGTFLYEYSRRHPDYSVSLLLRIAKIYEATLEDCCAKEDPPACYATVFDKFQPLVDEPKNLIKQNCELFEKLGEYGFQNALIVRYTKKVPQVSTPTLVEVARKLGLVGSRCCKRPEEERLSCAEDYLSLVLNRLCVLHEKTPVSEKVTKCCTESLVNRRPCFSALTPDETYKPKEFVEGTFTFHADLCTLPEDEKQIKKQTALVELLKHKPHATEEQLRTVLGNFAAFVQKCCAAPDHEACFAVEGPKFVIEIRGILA

human albumin [26] = molecular target: T4, human albumin (human, UniProt P02768 25-609); test: ELISA on coated albumin
sheep albumin [27] = molecular target: T5, sheep albumin (sheep, UniProt P14639 25-607); test: ELISA on coated albumin
bovine albumin [28] = molecular target: T6, bovine albumin (bovine, UniProt P02769 25-607); test: ELISA on coated albumin
T6 sequence (P02769 25-607 limits assumed): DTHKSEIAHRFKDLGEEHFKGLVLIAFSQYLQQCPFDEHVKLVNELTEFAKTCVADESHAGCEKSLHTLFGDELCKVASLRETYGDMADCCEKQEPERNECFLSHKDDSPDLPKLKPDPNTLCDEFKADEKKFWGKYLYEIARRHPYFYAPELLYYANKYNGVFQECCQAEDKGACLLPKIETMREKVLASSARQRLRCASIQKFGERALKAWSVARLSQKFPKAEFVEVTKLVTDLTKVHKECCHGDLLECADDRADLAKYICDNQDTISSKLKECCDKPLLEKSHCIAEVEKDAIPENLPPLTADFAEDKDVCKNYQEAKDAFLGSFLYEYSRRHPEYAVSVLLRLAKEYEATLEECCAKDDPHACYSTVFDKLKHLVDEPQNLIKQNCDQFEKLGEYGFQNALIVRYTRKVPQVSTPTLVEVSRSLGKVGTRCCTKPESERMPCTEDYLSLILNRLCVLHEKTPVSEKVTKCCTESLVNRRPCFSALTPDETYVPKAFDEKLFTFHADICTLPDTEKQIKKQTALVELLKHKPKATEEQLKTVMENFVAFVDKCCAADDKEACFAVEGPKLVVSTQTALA

chicken ovalbumin [29] = molecular target: T7, chicken ovalbumin (chicken, UniProt P01012 2-386); test: ELISA on coated albumin
T7 construct: also called Chicken Alb
T7 sequence (looked up): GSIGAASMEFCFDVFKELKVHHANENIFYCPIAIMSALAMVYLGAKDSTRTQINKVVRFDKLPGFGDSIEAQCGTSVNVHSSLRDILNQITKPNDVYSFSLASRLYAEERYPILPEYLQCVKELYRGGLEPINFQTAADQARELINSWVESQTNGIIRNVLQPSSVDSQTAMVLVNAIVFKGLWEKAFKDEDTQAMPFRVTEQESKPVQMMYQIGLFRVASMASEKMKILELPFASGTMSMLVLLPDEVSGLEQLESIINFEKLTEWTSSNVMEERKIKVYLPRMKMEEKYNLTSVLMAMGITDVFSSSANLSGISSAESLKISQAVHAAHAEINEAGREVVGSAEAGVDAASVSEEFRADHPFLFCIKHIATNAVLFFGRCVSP

horse albumin = molecular target: T8, horse albumin (horse, UniProt P35747 25-607); test: ELISA on coated albumin
T8 construct: also called Equine albumin
T8 sequence (P35747 25-607 limits assumed): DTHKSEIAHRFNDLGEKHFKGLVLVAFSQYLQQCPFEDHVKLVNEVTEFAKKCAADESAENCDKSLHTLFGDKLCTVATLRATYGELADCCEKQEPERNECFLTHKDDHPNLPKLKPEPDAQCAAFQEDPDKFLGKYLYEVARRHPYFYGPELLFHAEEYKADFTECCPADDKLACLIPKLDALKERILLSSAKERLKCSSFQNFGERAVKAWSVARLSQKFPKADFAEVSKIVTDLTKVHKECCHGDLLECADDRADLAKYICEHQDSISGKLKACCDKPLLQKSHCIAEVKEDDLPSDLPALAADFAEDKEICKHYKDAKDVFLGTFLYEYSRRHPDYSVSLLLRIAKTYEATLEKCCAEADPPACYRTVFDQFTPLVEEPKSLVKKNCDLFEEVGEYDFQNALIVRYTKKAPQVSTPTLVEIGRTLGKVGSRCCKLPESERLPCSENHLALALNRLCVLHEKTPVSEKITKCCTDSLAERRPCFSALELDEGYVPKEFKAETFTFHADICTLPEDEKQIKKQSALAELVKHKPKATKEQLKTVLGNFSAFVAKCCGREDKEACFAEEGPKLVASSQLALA

dog albumin = molecular target: T9, dog albumin (dog, UniProt P49822 25-608); test: ELISA on coated albumin
T9 construct: also called Canine albumin
T9 sequence (P49822 25-608 limits assumed): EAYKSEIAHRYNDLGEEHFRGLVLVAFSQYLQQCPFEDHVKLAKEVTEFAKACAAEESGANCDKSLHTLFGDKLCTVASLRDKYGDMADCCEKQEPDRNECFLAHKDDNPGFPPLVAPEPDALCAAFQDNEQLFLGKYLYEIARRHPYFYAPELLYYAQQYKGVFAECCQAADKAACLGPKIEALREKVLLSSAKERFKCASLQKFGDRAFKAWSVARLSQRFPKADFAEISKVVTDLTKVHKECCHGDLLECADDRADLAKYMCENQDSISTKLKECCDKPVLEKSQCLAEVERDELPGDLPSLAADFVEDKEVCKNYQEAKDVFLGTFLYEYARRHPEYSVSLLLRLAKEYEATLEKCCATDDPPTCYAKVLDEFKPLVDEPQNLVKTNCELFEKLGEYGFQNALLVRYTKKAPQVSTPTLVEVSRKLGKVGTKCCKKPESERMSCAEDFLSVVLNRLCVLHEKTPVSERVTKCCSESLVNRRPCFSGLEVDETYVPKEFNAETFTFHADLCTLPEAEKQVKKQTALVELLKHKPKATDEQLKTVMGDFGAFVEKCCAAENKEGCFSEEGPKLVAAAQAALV

cat albumin = molecular target: T10, cat albumin (cat, UniProt P49064 25-608); test: ELISA on cat albumin captured from serum
T10 construct: also called Feline albumin

human albumin [30] = molecular target: T4, human albumin; test: ELISA; A450 below 0.2 at highest SDA concentration
sheep albumin [31] = molecular target: T5, sheep albumin; test: ELISA; A450 below 0.2 at highest SDA concentration
bovine albumin [32] = molecular target: T6, bovine albumin; test: ELISA; A450 below 0.2 at highest SDA concentration
chicken ovalbumin [33] = molecular target: T7, chicken ovalbumin; test: ELISA; A450 below 0.2 at highest SDA concentration

Row | Binder | absorbance at 450 nm [1] | binding result [2] | absorbance at 450 nm [3] | absorbance at 450 nm [4] | concentration giving A450 of 0.59 [5] | minimal absorbance at 450 nm [6] | EC resulting in A450 0.2 [7] | maximal absorbance at 450 nm [7] | maximal absorbance at 450 nm [8] | EC resulting in A450 0.4 [9] | maximal absorbance at 450 nm [9] | EC resulting in A450 0.15 [10] | maximal absorbance at 450 nm [10] | EC resulting in A450 0.2 [11] | maximal absorbance at 450 nm [11] | % inhibition of binding [12] | % inhibition of binding [13] | % inhibition of binding [14] | % inhibition of binding [15] | % inhibition of binding [16] | other results
1 | B1 | 0.062 | no binding (tested: A450 above 0.2 counts as binding) | 1.19 | 0.062 | > 1 µg/mL | 0.576 | > 1000 ng/mL | 0.077 | 0.057 | > 1000 ng/mL | 0.191 | 36 ng/mL | 0.196 | 11 ng/mL | 0.53 | 96% | 9% | 2% | 16% | 21% | % inhibition of binding [17]: 6%; % inhibition of binding [18]: 26%; % inhibition of binding [19]: 3%; % inhibition of binding [20]: -16%; % inhibition of binding [21]: 8%; % inhibition of binding [22]: 97%; % inhibition of binding [23]: 19%; % inhibition of binding [24]: 19%; % inhibition of binding [25]: 12%
2 | B2 | 0.331 | no binding (tested: A450 above 0.2 counts as binding) | 1.32 | 0.061 | > 1 µg/mL | 0.903 | > 1000 ng/mL | 0.104 | 0.053 | > 1000 ng/mL | 0.233 | 1.9 ng/mL | 0.304 | 2.8 ng/mL | 0.493 | 10% | 97% | 10% | 10% | 23% | % inhibition of binding [17]: 12%; % inhibition of binding [18]: 18%; % inhibition of binding [19]: 10%; % inhibition of binding [20]: -4%; % inhibition of binding [21]: -12%; % inhibition of binding [22]: -8%; % inhibition of binding [23]: 17%; % inhibition of binding [24]: -26%; % inhibition of binding [25]: 10%
3 | B3 |  |  |  |  |  |  |  |  |  |  |  |  |  |  |  |  |  |  |  |  | SDA Effective Concentration resulting in A450 nm = 0.2 (mouse albumin): 180 ng/mL; maximal absorbance value at 450 nm (mouse albumin): 0.36 A450; SDA Effective Concentration resulting in A450 nm = 0.2 (swine albumin): 344 ng/mL; maximal absorbance value at 450 nm (swine albumin): 0.288 A450; maximal absorbance value at 450 nm (human albumin [26]): 0.05 A450; maximal absorbance value at 450 nm (sheep albumin [27]): 0.052 A450; maximal absorbance value at 450 nm (bovine albumin [28]): 0.052 A450; maximal absorbance value at 450 nm (chicken ovalbumin [29]): 0.054 A450; SDA Effective Concentration resulting in A450 nm = 0.2 (horse albumin): 235 ng/mL; maximal absorbance value at 450 nm (horse albumin): 0.483 A450; SDA Effective Concentration resulting in A450 nm = 0.2 (dog albumin): 51 ng/mL; maximal absorbance value at 450 nm (dog albumin): 0.921 A450; maximal absorbance value at 450 nm (cat albumin): 0.158 A450; binding result (human albumin [30]): no binding (tested: 1000 ng/ml); binding result (sheep albumin [31]): no binding (tested: 1000 ng/ml); binding result (bovine albumin [32]): no binding (tested: 1000 ng/ml); binding result (chicken ovalbumin [33]): no binding (tested: 1000 ng/ml)
